For one series, the target named is kallikrein (UniProt P03952+P03952). Put plainly: filter. Conditions: ~1 uM protein.
The target of series [1] is thrombin (alpha, Factor IIa) (Homo sapiens) (UniProt P00734+P00734). Put plainly: filter.

pKd: −log10 of the molar value. Where two headings read alike, the source gives them in different places. Some results are limits rather than exact numbers.

Chain of kallikrein (P03952 20-390, chain 1 of 2): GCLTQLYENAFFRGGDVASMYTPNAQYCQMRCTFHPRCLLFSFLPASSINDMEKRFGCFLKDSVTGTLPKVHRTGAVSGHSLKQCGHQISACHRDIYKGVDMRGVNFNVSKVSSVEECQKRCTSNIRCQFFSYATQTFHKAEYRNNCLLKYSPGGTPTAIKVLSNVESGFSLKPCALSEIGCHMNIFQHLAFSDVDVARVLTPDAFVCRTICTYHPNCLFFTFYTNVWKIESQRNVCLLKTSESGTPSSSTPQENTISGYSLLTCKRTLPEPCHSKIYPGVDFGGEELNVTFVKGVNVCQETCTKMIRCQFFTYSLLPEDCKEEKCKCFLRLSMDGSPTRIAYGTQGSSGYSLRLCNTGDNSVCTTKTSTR
Chain of kallikrein (P03952 391-638, chain 2 of 2): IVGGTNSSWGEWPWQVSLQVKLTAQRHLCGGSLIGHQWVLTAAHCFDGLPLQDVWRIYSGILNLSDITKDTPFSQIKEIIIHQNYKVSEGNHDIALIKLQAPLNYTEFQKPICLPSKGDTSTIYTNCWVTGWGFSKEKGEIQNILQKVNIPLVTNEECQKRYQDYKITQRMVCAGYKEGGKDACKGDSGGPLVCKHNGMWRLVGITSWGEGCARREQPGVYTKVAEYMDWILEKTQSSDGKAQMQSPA

“CGGGGAGAGGTTGGTGTGGTTGGCAATGGCTAGAGTAGTGACGTTTTCGCGGTGAGGTCC” showed a binding signal with kallikrein below 0.5 % bound.

The sequence “TAGAATACTCAAGCTTCGACGNNNNNNNNNNNNNNNNNNNNAGTTTGGATCCCCGGGTAC [Round 6 pool prepared with thymidine]” showed a pKd in series [1] below 5.00. As for “TAGAATACTCAAGCTTCGACGNNNNNNNNNNNNNNNNNNNNAGTTTGGATCCCCGGGTAC [pentynyl-dU Round 6 pool]”, in series [1] (5-(1-pentynyl)-dU replacing T in amplified region), the pKd is 6.40. As for “TAGAATACTCAAGCTTCGACGNNNNNNNNNNNNNNNNNNNNAGTTTGGATCCCCGGGTAC [unselected pentynyl-dU pool]”, the pKd in series [1] (5-(1-pentynyl)-dU replacing T in amplified region, unit micro sign lost in print) is below 5.00.

For the origin of these results see patent US5756291.
